# *1 amine or outer side, *2 acyl side, *3 side chain or, on linkers, in order; H or OH if unused. Where no end group is shown, it is not given here. Side-chain parts run from the residue outwards. [ ]: non-standard residue; d: D form. The star is where a group is joined. Decanoyl(10-(4-HOOC-PhO)) = O=C(O)c1ccc(OCCCCCCCCCC(=O)*)cc1; αMePhe(2-F) = C[C@](N)(Cc1ccccc1F)C(=O)O; γGlu = O=C(O)[C@H](CCC(=O)[*:2])N[*:1]; αMeY = C[C@](N)(Cc1ccc(O)cc1)C(=O)O; αMeL = CC(C)C[C@](C)(N)C(=O)O; Orn = NCCC[C@H](N)C(=O)O; AEEA = NCCOCCOCC(=O)O; Om = not defined here; Aib = CC(C)(N)C(=O)O
# T1: human GIP receptor (human, UniProt P48546 22-466)
# T1 sequence (looked up): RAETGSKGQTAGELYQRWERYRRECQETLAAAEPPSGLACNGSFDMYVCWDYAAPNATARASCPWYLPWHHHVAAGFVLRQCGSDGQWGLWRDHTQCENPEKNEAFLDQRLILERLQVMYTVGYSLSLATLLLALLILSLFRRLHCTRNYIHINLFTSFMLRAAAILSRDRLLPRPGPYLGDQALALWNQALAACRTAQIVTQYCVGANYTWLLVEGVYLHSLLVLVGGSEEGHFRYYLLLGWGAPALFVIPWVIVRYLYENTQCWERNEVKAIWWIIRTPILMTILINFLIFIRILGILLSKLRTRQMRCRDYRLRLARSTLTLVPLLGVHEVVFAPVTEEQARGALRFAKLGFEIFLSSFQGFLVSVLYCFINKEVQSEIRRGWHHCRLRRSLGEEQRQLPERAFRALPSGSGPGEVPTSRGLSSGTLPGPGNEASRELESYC
# T2: human GIP receptor (human) (UniProt P48546)
# T2 sequence (looked up): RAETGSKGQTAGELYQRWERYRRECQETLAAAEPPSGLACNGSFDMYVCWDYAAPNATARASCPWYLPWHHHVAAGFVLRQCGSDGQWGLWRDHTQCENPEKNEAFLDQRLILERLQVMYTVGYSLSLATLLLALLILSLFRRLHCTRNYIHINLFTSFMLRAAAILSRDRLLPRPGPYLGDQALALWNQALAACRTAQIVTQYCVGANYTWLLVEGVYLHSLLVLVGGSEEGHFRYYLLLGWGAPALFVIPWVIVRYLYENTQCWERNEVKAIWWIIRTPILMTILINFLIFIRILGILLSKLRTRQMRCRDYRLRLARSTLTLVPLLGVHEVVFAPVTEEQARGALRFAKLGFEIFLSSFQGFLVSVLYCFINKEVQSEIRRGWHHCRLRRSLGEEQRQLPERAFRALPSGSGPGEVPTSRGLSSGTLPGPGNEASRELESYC
# What was measured:
# Assay in all cases: cell-based or functional assay
# human GIP receptor = target: T1, human GIP receptor
# human GLP-1 receptor = human GLP-1 receptor (human, UniProt P43220 24-463)
# human glucagon receptor = human glucagon receptor (human, UniProt P47871 26-477)
# Chain of human glucagon receptor (P47871 26-477): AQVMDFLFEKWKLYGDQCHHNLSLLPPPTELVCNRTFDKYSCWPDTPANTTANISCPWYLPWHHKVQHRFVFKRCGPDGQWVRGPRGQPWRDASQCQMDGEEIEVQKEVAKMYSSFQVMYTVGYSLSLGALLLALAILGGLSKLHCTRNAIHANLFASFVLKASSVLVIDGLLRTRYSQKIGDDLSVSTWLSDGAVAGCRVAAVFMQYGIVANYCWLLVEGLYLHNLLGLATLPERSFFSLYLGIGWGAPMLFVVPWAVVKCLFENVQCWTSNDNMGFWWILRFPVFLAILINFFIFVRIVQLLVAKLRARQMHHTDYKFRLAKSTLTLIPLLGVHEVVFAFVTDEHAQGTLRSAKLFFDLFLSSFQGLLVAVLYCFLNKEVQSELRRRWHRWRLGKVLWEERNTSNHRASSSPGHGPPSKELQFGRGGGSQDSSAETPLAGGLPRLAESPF
# hGLP-1R = hGLP-1R (Homo sapiens, UniProt P43220)
# [1] = target: T2, human GIP receptor (human)
# [2] = target: human glucagon receptor (human) (UniProt P47871)
Binder,cAMP EC50 (1.0% HSA) (human GIP receptor) [nM],cAMP Emax (1.0% HSA) (human GIP receptor) [%],cAMP EC50 (1.0% HSA) (human GLP-1 receptor) [nM],cAMP Emax (1.0% HSA) (human GLP-1 receptor) [%],cAMP EC50 (1.0% HSA) (human glucagon receptor) [nM],cAMP EC50 (hGLP-1R) [nM],cAMP Emax (hGLP-1R) [%],cAMP EC50 [1] [nM],cAMP Emax [1] [%],cAMP EC50 [2] [nM]
Y[Aib]EGT[αMePhe(2-F)]TSDV[Aib]I[αMeL]LD[Orn]K([AEEA-AEEA-γGlu-Decanoyl(10-(4-HOOC-PhO))])AQ[Aib][Om]FI[dE][αMeY]LIK([AEEA-AEEA-γGlu-Decanoyl(10-(4-HOOC-PhO))])GGPSSGAPPPS-NH2 (reading uncertain; also: printed as Y-Aib-EGT-αMeF(2F)-TSDV-Aib-I-αMeL-LD-Orn-K((2-[2-(2-Amino-ethoxy)-ethoxy]-acetyl)2-(γ-Glu)-(10-(4-carboxyphenoxy)decanoyl))AQ-Aib-Om-FI-(D-Glu)-αMeY-LIK((2-[2-(2-Amino-ethoxy)-ethoxy]-acetyl)2-(γ-Glu)-(10-(4-carboxyphenoxy)decanoyl))GGPSSGAPPPS-NH2) [Example 353],5.35,84.8,7.12,92.5,> 9950,0.203,98,0.0249,98.2,> 9950
Y[Aib]EGT[αMePhe(2-F)]TSDV[Aib]I[αMeL]LD[Orn]K([AEEA-γGlu-Decanoyl(10-(4-HOOC-PhO))])AQ[Aib]EFI[dE][αMeY]LIK([AEEA-γGlu-Decanoyl(10-(4-HOOC-PhO))])GGPSSGAPPPS-NH2 [Example 379],11.6,90,48.5,,> 9950,0.171,104,0.0167,97.5,> 9950
YXEGTXTSDXXIXLDXKAQXKFIXXLIEGGPSSGAPPPS (Y-Aib-EGT-αMeF(2F)-TSD-4Pal-Aib-I-αMeL-LD-Orn-K((2-[2-(2-Amino-ethoxy)-ethoxy]-acetyl)2-(γ-Glu)-CO-(CH2)12-CO2H)AQ-Aib-K((2-[2-(2-Amino-ethoxy)-ethoxy]-acetyl)2-(γ-Glu)-CO-(CH2)12-CO2H)FI-(D-Glu)-αMeY-LIEGGPSSGAPPPS-NH2) [Example 357],1.19,,36.2,92.8,> 9950,0.649,107,0.011,99.9,> 10100
YXEGTXTSDYXIXLDXIAQXKFIXXLIKGGPSSGAPPPS (Y-Aib-EGT-αMeF(2F)-TSDY-Aib-I-αMeL-LD-Orn-IAQ-Aib-K((2-[2-(2-Amino-ethoxy)-ethoxy]-acetyl)-(γ-Glu)-(10-(4-carboxyphenoxy)decanoyl))FI-(D-Glu)-αMeY-LIK((2-[2-(2-Amino-ethoxy)-ethoxy]-acetyl)-(γ-Glu)-(10-(4-carboxyphenoxy)decanoyl))GGPSSGAPPPS-NH2) [Example 376],39.6,88.3,419,121,> 9950,0.539,104,0.0281,99.8,> 9950
YXEGTXTSDXXIXLDXQAQXXFIKXLIKGGPSSGAPPPS (Y-Aib-EGT-αMeF(2F)-TSD-4Pal-Aib-I-αMeL-LD-Orn-QAQ-Aib-4Pal-FIK((2-[2-(2-Amino-ethoxy)-ethoxy]-acetyl)2-(γ-Glu)-(10-(4-carboxyphenoxy)decanoyl))-αMeY-LIK((2-[2-(2-Amino-ethoxy)-ethoxy]-acetyl)2-(γ-Glu)-(10-(4-carboxyphenoxy)decanoyl))GGPSSGAPPPS-NH2) [Example 493],0.591,,7.24,,> 9950,,,,,
YXEGTXTSDVXIXLDXKAQXKFIXXLIEGGPSSGAPPPS (Y-Aib-EGT-αMeF(2F)-TSDV-Aib-I-αMeL-LD-Orn-K((2-[2-(2-Amino-ethoxy)-ethoxy]-acetyl)-(γ-Glu)-(10-(4-carboxyphenoxy)decanoyl))AQ-Aib-K((2-[2-(2-Amino-ethoxy)-ethoxy]-acetyl)-(γ-Glu)-(10-(4-carboxyphenoxy)decanoyl))FI-(D-Glu)-αMeY-LIEGGPSSGAPPPS-NH2) [Example 378],7.46,81.2,47.7,,> 9950,0.166,98.9,0.0132,93.5,> 9950
YXEGTXTSDXXIXLDXKAQXXFIXXLIKGGPSSGAPPPS (Y-Aib-EGT-αMeF(2F)-TSD-4Pal-Aib-I-αMeL-LD-Orn-K((2-[2-(2-Amino-ethoxy)-ethoxy]-acetyl)2-(γ-Glu)-CO-(CH2)10-CH3)AQ-Aib-4Pal-FI-(D-Glu)-αMeY-LIK((2-[2-(2-Amino-ethoxy)-ethoxy]-acetyl)2-(γ-Glu)-CO-(CH2)10-CH3)GGPSSGAPPPS-NH2) [Example 416],0.723,83,,,> 9950,0.332,104,0.0214,99,> 9950
YXEGTXTSDYXIXLDXKAQXKFIXXLIEGGPSSGAPPPS (Y-Aib-EGT-αMeF(2F)-TSDY-Aib-I-αMeL-LD-Orn-K((2-[2-(2-Amino-ethoxy)-ethoxy]-acetyl)-(γ-Glu)-CO-(CH2)12-CO2H)AQ-Aib-K((2-[2-(2-Amino-ethoxy)-ethoxy]-acetyl)-(γ-Glu)-CO-(CH2)12-CO2H)FI-(D-Glu)-αMeY-LIEGGPSSGAPPPS-NH2) [Example 366],3.14,95.9,96.2,,> 9950,0.279,89.6,0.0162,108,> 9950

# Source: patent US20230265151A1, “GIP/GLP1 CO-AGONIST COMPOUNDS” (priority 2020, published 2023)
